Measurements taken from paper PMC6953191, “OsNAC2 integrates auxin and cytokinin pathways to modulate rice root development”.

T1: OsNAC2 (Oryza sativa L. (rice), UniProt Q7XUV6 1-343)
T1 sequence: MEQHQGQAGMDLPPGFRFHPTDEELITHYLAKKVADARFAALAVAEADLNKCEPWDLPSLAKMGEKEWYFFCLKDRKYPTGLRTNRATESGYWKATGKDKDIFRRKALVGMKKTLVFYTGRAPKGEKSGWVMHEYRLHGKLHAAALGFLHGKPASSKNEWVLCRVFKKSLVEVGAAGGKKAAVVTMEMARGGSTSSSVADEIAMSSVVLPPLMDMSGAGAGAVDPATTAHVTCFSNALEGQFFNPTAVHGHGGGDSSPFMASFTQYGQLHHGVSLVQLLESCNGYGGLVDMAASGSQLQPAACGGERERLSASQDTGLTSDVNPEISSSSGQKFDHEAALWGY

B1: OsCKX4 promoter-derived 3x CGGCCACGCA probe (dsDNA)
DNA 1: CGGCCACGCACGGCCACGCACGGCCACGCA
DNA 2: TGCGTGGCCGTGCGTGGCCGTGCGTGGCCG
B2: unlabelled 3x CGGCCACGCA competitor (dsDNA)
DNA 1: B1 DNA 1
DNA 2: B1 DNA 2

Assays:
OsNAC2 [1] = biological target: T1, OsNAC2; test: EMSA; increasing OsNAC2; 2.5 mM MgCl2; salmon sperm DNA; 50 mM Tris-HCl pH 8.0, 100 mM KCl, 2.5 mM MgCl2, 0.2 mM DTT, 2 ug salmon sperm DNA, 10% glycerol, 20 uL, 25 C 20 min; probe printed as 200 nmol; 10% PAGE, 0.5x; conditions: protein: recombinant; tags: pET-28a vector tag (BamHI/XhoI); chain copies: 2; label: FAM; blunt
OsNAC2 [2] = biological target: T1, OsNAC2; test: competition EMSA; unlabelled probe weakened binding of FAM probe N1; 50 mM Tris-HCl pH 8.0, 100 mM KCl, 2.5 mM MgCl2, 0.2 mM DTT, 2 ug salmon sperm DNA, 10% glycerol, 20 uL, 25 C 20 min; probe printed as 200 nmol; 10% PAGE, 0.5x; conditions: protein: recombinant; tags: pET-28a vector tag (BamHI/XhoI); chain copies: 2; blunt

Row | Binder | binding result (OsNAC2 [1]) | binding result (OsNAC2 [2])
1 | B1 | binds | –
2 | B2 | – | binds
